Columns and labels:
[1] = system: FVIII169/VWF057 heterodimer
[2] = system: FVIII169/VWF059 heterodimer
Chain of FVIII169/VWF059 heterodimer (chain, as listed by the source, chain 1 of 2): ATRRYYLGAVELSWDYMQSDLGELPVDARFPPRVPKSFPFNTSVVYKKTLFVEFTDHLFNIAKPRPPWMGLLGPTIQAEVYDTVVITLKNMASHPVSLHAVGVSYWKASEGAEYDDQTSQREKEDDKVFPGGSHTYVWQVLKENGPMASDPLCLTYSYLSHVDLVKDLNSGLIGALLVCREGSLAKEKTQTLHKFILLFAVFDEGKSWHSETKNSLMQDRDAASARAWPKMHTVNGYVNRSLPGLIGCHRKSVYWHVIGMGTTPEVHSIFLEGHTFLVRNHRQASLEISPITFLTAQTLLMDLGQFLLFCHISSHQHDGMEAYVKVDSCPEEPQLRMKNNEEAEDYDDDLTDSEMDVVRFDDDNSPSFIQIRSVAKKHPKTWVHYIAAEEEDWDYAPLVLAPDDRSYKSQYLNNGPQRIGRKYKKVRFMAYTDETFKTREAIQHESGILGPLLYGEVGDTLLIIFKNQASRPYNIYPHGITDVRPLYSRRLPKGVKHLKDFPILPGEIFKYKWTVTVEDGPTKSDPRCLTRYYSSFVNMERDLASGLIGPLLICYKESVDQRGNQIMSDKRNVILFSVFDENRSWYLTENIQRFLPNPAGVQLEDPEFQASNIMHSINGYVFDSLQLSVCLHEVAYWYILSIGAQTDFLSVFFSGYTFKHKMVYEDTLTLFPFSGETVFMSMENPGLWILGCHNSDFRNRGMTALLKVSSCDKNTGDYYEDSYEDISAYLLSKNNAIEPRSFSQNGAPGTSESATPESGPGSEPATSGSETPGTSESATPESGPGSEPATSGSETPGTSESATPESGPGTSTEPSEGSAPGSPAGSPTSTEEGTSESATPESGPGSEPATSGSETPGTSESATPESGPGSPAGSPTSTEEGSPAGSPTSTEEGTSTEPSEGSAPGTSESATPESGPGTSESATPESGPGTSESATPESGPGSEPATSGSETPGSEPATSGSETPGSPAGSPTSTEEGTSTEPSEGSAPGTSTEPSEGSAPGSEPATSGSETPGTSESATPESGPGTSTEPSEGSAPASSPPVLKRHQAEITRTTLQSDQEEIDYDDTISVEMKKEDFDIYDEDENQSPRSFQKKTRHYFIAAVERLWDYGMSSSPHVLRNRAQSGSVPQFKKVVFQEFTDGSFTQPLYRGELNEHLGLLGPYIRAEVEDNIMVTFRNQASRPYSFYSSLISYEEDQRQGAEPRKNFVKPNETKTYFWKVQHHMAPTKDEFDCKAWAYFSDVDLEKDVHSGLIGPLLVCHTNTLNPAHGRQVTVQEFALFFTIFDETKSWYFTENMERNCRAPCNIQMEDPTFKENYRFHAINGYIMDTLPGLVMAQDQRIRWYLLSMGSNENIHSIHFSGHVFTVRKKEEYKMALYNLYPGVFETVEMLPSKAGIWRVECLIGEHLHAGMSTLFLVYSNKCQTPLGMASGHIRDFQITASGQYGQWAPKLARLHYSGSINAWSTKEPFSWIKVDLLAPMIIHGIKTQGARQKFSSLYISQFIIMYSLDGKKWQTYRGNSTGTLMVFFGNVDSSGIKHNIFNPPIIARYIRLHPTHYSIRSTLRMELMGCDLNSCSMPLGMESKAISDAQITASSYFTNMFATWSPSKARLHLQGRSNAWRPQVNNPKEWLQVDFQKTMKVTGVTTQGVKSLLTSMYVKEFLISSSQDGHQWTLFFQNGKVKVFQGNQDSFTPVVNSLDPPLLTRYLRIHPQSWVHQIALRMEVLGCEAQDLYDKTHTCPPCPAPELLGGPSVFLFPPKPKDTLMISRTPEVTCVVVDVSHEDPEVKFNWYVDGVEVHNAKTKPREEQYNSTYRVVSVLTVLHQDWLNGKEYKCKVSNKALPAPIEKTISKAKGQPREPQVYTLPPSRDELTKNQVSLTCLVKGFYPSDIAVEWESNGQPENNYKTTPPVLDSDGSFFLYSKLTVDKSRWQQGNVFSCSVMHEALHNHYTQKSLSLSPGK
Chain of FVIII169/VWF059 heterodimer (chain, as listed by the source, chain 2 of 2): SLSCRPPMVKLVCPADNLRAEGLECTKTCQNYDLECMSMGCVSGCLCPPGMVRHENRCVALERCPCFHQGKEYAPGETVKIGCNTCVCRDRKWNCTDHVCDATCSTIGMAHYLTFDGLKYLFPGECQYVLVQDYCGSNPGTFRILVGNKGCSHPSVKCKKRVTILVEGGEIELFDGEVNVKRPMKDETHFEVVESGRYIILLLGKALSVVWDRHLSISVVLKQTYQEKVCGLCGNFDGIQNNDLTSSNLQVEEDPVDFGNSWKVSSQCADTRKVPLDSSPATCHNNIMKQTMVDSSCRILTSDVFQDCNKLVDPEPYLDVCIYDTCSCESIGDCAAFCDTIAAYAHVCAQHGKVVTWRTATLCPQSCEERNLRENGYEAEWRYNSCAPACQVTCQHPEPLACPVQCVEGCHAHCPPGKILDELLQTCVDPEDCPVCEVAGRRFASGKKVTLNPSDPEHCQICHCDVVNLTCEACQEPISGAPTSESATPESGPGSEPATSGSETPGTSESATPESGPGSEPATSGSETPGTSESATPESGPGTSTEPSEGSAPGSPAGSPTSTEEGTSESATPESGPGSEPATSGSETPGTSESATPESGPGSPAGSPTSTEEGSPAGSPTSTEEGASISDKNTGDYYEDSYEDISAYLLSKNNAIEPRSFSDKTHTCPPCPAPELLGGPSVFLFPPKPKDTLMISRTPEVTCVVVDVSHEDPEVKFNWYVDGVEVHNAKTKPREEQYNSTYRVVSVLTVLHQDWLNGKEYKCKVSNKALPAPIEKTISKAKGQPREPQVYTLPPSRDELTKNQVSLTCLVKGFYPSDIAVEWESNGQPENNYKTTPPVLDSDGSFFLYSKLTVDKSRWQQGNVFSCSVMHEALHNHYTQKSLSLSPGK

Chain of FVIII169/VWF057 heterodimer (chain, as listed by the source, chain 1 of 2): as the sequence (chain, as listed by the source, chain 1 of 2) above
Chain of FVIII169/VWF057 heterodimer (chain, as listed by the source, chain 2 of 2): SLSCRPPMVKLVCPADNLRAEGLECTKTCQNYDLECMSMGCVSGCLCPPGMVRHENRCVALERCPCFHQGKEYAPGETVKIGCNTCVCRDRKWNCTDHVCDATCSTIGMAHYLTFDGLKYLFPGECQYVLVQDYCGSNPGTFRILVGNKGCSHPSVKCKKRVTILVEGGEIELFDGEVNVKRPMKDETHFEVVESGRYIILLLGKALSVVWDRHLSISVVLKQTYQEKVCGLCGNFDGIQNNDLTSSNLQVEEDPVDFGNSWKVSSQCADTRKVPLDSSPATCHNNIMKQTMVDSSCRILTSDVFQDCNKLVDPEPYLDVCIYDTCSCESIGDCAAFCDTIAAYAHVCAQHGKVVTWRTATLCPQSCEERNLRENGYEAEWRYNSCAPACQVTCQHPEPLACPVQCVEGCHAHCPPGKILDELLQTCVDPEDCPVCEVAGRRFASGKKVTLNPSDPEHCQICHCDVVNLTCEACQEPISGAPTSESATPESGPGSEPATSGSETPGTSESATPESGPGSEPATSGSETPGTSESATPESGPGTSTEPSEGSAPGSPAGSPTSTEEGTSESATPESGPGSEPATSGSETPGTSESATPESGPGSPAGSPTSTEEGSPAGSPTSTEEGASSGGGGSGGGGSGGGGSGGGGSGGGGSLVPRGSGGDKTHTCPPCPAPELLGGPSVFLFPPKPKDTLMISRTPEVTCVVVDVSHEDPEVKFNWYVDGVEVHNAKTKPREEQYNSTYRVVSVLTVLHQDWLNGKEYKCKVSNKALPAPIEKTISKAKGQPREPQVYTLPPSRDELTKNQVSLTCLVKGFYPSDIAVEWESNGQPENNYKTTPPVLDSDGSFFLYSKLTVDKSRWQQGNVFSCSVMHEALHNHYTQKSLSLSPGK

Substance: human α-thrombin
- thrombin digestion, release of D′D3 from Fc (SDS-PAGE / western blot time course, FVIII:thrombin about 22:1, 37° C.) [1]: Un-cleaved FVIII169/VWF057 remained after 15 minutes
- thrombin cleavage by mass spectroscopy (MS) [2]: By MS, FVIII 169/VWF059 again showed better release of D′D3 from Fc as compared to VWF057
- thrombin digestion, release of D′D3 from Fc (SDS-PAGE / western blot time course, FVIII:thrombin about 22:1, 37° C.) [2]: little to no detectable un-cleaved FVIII 169/VWF059 after 5 minutes

Reference: patent publication US20250289869
